T1: NHERF3_3, Q5T2W1
T1 sequence (Q5T2W1 238-333, limits assumed, looked up): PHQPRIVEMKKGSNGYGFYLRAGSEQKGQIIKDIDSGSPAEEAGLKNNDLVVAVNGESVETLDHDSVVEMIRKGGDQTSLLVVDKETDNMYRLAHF

T2: HTRA3, P83110
T2 sequence (P83110 354-453, limits assumed, looked up): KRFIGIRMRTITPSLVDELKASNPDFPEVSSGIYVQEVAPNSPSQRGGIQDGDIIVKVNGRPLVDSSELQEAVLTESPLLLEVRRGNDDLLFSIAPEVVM

T3: LIN7C, Q9NUP9
T3 sequence (Q9NUP9 88-185, limits assumed, looked up): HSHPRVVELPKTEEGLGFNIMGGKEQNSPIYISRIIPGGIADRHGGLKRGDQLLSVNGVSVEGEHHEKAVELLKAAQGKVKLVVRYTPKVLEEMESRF

T4: APBA1_2, Q02410
T4 sequence (Q02410 742-832, limits assumed, looked up): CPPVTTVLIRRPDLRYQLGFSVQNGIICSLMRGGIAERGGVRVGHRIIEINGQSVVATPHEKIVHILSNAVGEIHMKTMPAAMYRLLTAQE

T5: LIN7B, Q9HAP6
T5 sequence (Q9HAP6 88-185, limits assumed, looked up): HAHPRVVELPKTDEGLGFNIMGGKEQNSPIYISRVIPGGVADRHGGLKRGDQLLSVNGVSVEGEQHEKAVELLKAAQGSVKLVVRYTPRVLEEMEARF

T6: DLG3_3, Q92796
T6 sequence (Q92796 374-475, limits assumed, looked up): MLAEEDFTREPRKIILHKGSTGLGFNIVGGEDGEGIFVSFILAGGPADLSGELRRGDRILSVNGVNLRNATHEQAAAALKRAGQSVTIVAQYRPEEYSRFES

T7: SNTA1, Q13424
T7 sequence (Q13424 82-180, limits assumed, looked up): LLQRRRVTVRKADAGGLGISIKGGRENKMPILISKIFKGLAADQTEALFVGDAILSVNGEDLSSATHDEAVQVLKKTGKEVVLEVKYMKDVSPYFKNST

T8: RHPN1, Q8TCX5
T8 sequence (Q8TCX5 508-602, limits assumed, looked up): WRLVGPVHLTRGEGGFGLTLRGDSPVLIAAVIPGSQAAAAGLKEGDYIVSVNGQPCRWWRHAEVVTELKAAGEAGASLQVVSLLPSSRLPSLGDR


Legend:
Test in all cases: holdup assay
Set-up in all cases: key: below the threshold = too weak to quantify, mostly under pKd 3.1 to 4
Details in all cases: plain residues with an end cap or a label only (N-terminal biotin on a linker: ado-ado)
GOPC, Q9HD26 = biological target: GOPC, Q9HD26
DLG2_2, Q15700 = biological target: DLG2_2, Q15700
GRIP2_3, Q9C0E4 = biological target: GRIP2_3, Q9C0E4
MAST2, Q6P0Q8 = biological target: MAST2, Q6P0Q8
FRMPD2_1, Q68DX3 = biological target: FRMPD2_1, Q68DX3
Inadl_10, Q8NI35 = biological target: Inadl_10, Q8NI35
MAGI1_2, Q96QZ7 = biological target: MAGI1_2, Q96QZ7
Inadl_4, Q8NI35 = biological target: Inadl_4, Q8NI35
NHERF3_3, Q5T2W1 = biological target: T1, NHERF3_3, Q5T2W1
FRMPD2_2, Q68DX3 = biological target: FRMPD2_2, Q68DX3
LNX1_2, Q8TBB1 = biological target: LNX1_2, Q8TBB1
ARHGEF12, Q9NZN5-2 = biological target: ARHGEF12, Q9NZN5-2
Inadl_6, Q8NI35 = biological target: Inadl_6, Q8NI35
HTRA3, P83110 = biological target: T2, HTRA3, P83110
FRMPD3, Q5JV73 = biological target: FRMPD3, Q5JV73
PARD3_3, Q8TEW0 = biological target: PARD3_3, Q8TEW0
LNX1_3, Q8TBB1 = biological target: LNX1_3, Q8TBB1
LIN7C, Q9NUP9 = biological target: T3, LIN7C, Q9NUP9
APBA1_2, Q02410 = biological target: T4, APBA1_2, Q02410
LIN7B, Q9HAP6 = biological target: T5, LIN7B, Q9HAP6
Inadl_8, Q8NI35 = biological target: Inadl_8, Q8NI35
DLG1_1, Q12959 = biological target: DLG1_1, Q12959
Inadl_1, Q8NI35 = biological target: Inadl_1, Q8NI35
DLG3_3, Q92796 = biological target: T6, DLG3_3, Q92796
MAGI2_3, Q86UL8 = biological target: MAGI2_3, Q86UL8
DLG4_3, P78352 = biological target: DLG4_3, P78352
SNTA1, Q13424 = biological target: T7, SNTA1, Q13424
RHPN1, Q8TCX5 = biological target: T8, RHPN1, Q8TCX5
MAGI3_2, Q5TCQ9 = biological target: MAGI3_2, Q5TCQ9
NHERF4_4, Q86UT5 = biological target: NHERF4_4, Q86UT5
GORASP1, Q9BQQ3 = biological target: GORASP1, Q9BQQ3
GORASP1, Q9BQQ3, sequence (Q9BQQ3 1-208): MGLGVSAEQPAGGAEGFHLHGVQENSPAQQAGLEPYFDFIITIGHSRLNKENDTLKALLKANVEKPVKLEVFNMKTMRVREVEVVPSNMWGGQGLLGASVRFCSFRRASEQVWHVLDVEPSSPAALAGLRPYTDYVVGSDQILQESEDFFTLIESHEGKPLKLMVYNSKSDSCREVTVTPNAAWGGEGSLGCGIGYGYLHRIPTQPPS

FRMPD2_1, Q68DX3, sequence (Q68DX3 770-861): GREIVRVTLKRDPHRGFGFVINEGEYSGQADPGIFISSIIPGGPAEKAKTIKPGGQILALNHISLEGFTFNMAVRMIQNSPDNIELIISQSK
Inadl_4, Q8NI35, sequence (Q8NI35 547-651): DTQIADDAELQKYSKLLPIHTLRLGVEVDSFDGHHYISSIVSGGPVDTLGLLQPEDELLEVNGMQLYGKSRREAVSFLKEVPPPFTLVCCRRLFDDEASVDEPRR
Inadl_8, Q8NI35, sequence (Q8NI35 1425-1530): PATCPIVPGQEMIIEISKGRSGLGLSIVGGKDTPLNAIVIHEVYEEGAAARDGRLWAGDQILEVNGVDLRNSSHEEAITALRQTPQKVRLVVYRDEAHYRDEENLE
MAST2, Q6P0Q8, sequence (Q6P0Q8 1099-1202): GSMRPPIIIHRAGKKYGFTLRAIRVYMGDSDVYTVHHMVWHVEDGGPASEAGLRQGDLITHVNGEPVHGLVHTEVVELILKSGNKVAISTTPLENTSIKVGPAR
FRMPD3, Q5JV73, sequence (Q5JV73 12-100): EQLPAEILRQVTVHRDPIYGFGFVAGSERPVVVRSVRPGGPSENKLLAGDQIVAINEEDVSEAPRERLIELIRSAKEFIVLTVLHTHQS
MAGI1_2, Q96QZ7, sequence (Q96QZ7 456-580): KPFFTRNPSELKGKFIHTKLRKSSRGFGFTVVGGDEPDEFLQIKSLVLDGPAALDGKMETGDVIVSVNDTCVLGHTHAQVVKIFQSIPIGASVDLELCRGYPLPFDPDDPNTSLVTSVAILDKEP
PARD3_3, Q8TEW0, sequence (Q8TEW0 582-685): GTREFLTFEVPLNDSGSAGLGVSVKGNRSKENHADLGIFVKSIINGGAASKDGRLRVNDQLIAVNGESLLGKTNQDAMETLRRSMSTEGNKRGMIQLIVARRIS
Inadl_10, Q8NI35, sequence (Q8NI35 1673-1763): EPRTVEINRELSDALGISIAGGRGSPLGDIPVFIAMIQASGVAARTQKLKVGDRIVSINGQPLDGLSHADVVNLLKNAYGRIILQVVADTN
ARHGEF12, Q9NZN5-2, sequence (Q9NZN5 other isoform, or with tags, fused parts or gaps): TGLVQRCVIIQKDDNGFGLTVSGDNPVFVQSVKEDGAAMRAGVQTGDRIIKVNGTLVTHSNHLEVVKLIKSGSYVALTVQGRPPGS
DLG4_3, P78352, sequence (P78352 306-403): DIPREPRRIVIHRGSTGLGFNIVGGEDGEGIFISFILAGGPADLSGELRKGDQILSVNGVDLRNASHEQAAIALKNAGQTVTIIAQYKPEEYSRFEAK
Inadl_6, Q8NI35, sequence (Q8NI35 1058-1167): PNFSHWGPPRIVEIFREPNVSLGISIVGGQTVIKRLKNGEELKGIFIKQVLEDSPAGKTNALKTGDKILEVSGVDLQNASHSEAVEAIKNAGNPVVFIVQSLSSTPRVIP
LNX1_3, Q8TBB1, sequence (Q8TBB1 500-596): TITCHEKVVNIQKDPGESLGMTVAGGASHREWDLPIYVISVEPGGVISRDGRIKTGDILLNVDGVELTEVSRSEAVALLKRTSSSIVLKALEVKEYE
Inadl_1, Q8NI35, sequence (Q8NI35 113-229): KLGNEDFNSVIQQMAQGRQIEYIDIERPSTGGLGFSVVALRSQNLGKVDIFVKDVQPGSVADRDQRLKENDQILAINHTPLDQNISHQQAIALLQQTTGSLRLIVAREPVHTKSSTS
MAGI3_2, Q5TCQ9, sequence (Q5TCQ9 398-503): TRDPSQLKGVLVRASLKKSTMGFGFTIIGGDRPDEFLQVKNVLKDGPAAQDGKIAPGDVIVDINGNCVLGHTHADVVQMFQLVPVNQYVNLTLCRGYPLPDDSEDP
MAGI2_3, Q86UL8, sequence (Q86UL8 600-682): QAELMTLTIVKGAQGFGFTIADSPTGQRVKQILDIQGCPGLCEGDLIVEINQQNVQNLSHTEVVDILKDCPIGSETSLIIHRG
FRMPD2_2, Q68DX3, sequence (Q68DX3 944-1038): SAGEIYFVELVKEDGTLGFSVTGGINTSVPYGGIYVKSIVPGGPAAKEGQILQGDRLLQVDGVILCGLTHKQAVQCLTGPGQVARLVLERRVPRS
GRIP2_3, Q9C0E4, sequence (Q9C0E4 238-339): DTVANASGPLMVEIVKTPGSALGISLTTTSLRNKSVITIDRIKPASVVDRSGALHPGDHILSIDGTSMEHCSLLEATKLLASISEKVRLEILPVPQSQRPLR
DLG2_2, Q15700, sequence (Q15700 189-283): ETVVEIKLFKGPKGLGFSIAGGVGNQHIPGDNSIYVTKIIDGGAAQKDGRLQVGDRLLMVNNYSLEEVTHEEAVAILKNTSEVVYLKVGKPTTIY
LNX1_2, Q8TBB1, sequence (Q8TBB1 371-470): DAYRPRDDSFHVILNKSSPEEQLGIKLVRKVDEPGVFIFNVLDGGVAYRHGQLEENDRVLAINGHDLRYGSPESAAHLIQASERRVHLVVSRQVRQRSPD
NHERF4_4, Q86UT5, sequence (Q86UT5 464-550): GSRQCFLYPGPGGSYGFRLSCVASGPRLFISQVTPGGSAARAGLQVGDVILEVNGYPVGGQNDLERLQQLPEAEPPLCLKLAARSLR

Row | Binder | pKd (GOPC, Q9HD26) | pKd (DLG2_2, Q15700) | pKd (GRIP2_3, Q9C0E4) | pKd (MAST2, Q6P0Q8) | pKd (FRMPD2_1, Q68DX3) | pKd (Inadl_10, Q8NI35) | pKd (MAGI1_2, Q96QZ7) | pKd (Inadl_4, Q8NI35) | pKd (NHERF3_3, Q5T2W1) | pKd (FRMPD2_2, Q68DX3) | pKd (LNX1_2, Q8TBB1) | pKd (ARHGEF12, Q9NZN5-2) | pKd (Inadl_6, Q8NI35) | pKd (HTRA3, P83110) | pKd (FRMPD3, Q5JV73) | pKd (PARD3_3, Q8TEW0) | pKd (LNX1_3, Q8TBB1) | pKd (LIN7C, Q9NUP9) | pKd (APBA1_2, Q02410) | pKd (LIN7B, Q9HAP6) | further results
1 | IKLETKKTKL [SLC15A2, Q16348] | 4.29 | 3.66 | below the threshold | 5.56 | below the threshold | below the threshold | 3.58 | below the threshold | 4.67 | below the threshold | below the threshold | 4.69 | below the threshold | below the threshold | below the threshold | below the threshold | below the threshold | below the threshold | 3.67 | below the threshold | pKd (Inadl_8, Q8NI35): 3.76; pKd (DLG1_1, Q12959): below the threshold; pKd (Inadl_1, Q8NI35): below the threshold; pKd (DLG3_3, Q92796): 3.81; pKd (MAGI2_3, Q86UL8): 3.6; pKd (DLG4_3, P78352): below the threshold; pKd (SNTA1, Q13424): 3.59; pKd (RHPN1, Q8TCX5): 3.76; pKd (MAGI3_2, Q5TCQ9): 3.49; pKd (NHERF4_4, Q86UT5): below the threshold; pKd (GORASP1, Q9BQQ3): below the threshold
2 | GQNMTVSVVI [PRLHR, P49683] | below the threshold | below the threshold | below the threshold | below the threshold | below the threshold | below the threshold | below the threshold | below the threshold | 4.02 | below the threshold | 3.54 | 4.13 | below the threshold | 3.72 | below the threshold | 4.1 | below the threshold | below the threshold | 3.87 | 3.79 | pKd (Inadl_8, Q8NI35): 3.8; pKd (DLG1_1, Q12959): below the threshold; pKd (Inadl_1, Q8NI35): below the threshold; pKd (DLG3_3, Q92796): below the threshold; pKd (MAGI2_3, Q86UL8): below the threshold; pKd (DLG4_3, P78352): below the threshold; pKd (SNTA1, Q13424): 3.89; pKd (RHPN1, Q8TCX5): below the threshold; pKd (MAGI3_2, Q5TCQ9): below the threshold; pKd (NHERF4_4, Q86UT5): 3.97; pKd (GORASP1, Q9BQQ3): 4.28
3 | GTMFLRETSL [GUCY1A2, P33402] | 4.43 | 4.23 | below the threshold | 5.68 | below the threshold | below the threshold | 4.24 | below the threshold | below the threshold | below the threshold | below the threshold | 4.93 | 4.84 | below the threshold | below the threshold | below the threshold | below the threshold | 4.83 | 3.61 | 4.74 | pKd (Inadl_8, Q8NI35): 3.9; pKd (DLG1_1, Q12959): 4.23; pKd (Inadl_1, Q8NI35): below the threshold; pKd (DLG3_3, Q92796): 4.64; pKd (MAGI2_3, Q86UL8): 3.71; pKd (DLG4_3, P78352): 4.86; pKd (SNTA1, Q13424): 5.64; pKd (RHPN1, Q8TCX5): 4.8; pKd (MAGI3_2, Q5TCQ9): 4.46; pKd (NHERF4_4, Q86UT5): below the threshold; pKd (GORASP1, Q9BQQ3): below the threshold
